Consider one molecule from patent CN114605551A.

In assay [1] the target is CA24-2人腹水. As to the kind of experiment: ELISA OD450/630, antibody 0 ng/ml (blank well), CA24-2 human ascites, HRP-labelled same antibody. A general note: In an ELISA, binding on a coated surface is turned into a signal by an enzyme label.
In assay [2] the target is CA24-2人腹水. Briefly: ELISA OD450/630, antibody 125 ng/ml captured on goat anti-mouse IgG, CA24-2 human ascites, HRP-labelled same antibody.
For assay [3], the target named is CA24-2人腹水. As to the kind of experiment: ELISA OD450/630, antibody 62.5 ng/ml captured on goat anti-mouse IgG, CA24-2 human ascites, HRP-labelled same antibody.
Assay [4] has as its target CA24-2人腹水. As to the kind of experiment: ELISA OD450/630, antibody 31.25 ng/ml captured on goat anti-mouse IgG, CA24-2 human ascites, HRP-labelled same antibody.
For assay [5], the target named is CA24-2人腹水. Briefly: ELISA OD450/630, antibody 7.813 ng/ml captured on goat anti-mouse IgG, CA24-2 human ascites, HRP-labelled same antibody.
For assay [6], the target named is CA24-2人腹水. As to the kind of experiment: ELISA OD450/630, antibody 15.625 ng/ml captured on goat anti-mouse IgG, CA24-2 human ascites, HRP-labelled same antibody.
The target of assay [7] is CA24-2人腹水. Briefly: ELISA OD450/630: supernatant of transiently transfected CHO cells diluted 1000-fold, captured on goat anti-mouse IgG, CA24-2 human ascites, HRP-anti-CA24-2 detection; wells without supernatant OD <0.1.

B1: 实施例1的抗CA24-2抗体(WT) (antibody, mouse IgG1, kappa, V domains shown)
VH: EVKLVESGGGLVQPGGSLRLTCATSAFTFSDYYMEWVRQPPGKALEWLGFIRKKADGYTTEYSASIKGRFTISRDDSQNILYLQMNTLRAEDSATYYCARGISTATGVAYWGQGTLVTVSA
VL: DIVMTQSPSSLALSVGQKVTMSCKSSQSIVNTSNQKNYLAWYQQKPGQSPKLLVYWASTRETGVPDRFIGSGSGTDFTLAISSVQAEDLADYYCQQHYSVPFTFGSGTKLEIKR
Regarding B1, the OD450 with CA24-2人腹水 [1] stood at 0.052 OD; in the assay with CA24-2人腹水 [2] it was 1.63 OD; in the assay with CA24-2人腹水 [3], 1.46 OD; with CA24-2人腹水 [4], 0.734 OD; with CA24-2人腹水 [5] it was 0.246 OD; in the assay with CA24-2人腹水 [6], 0.329 OD. In the assay with CA24-2人腹水 [7], this molecule returned an OD450 of more than 1 OD.
